Consider three molecules from patent US7582478B2, “Cleaved serum response factor in cardiac diagnosis and therapy” (Baylor College of Medicine, priority 2003, dated 2009).

The target of assay [1] is T1, active recombinant human caspase 3 (Homo sapiens, UniProt P42574).
T1 construct: incubated with active recombinant human caspase 3; purchased BD PharMingen
T1 sequence (P42574 29-175 limits assumed): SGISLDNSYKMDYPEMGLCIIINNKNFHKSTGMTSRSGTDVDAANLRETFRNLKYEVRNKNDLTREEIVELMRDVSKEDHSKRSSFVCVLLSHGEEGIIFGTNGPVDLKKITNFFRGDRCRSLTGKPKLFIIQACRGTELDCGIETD
T1 sequence (P42574 176-277 limits assumed): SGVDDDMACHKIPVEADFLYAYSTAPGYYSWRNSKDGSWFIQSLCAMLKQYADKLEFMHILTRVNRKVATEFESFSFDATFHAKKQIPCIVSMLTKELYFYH
The assay can be described thus: In vitro cleavage of recombinant SRF by active caspase 3, Western blot. The settings on record: 20 μM Z-VAD-fmk, recombinant full length SRF. In kind it is biochemical. Here is the method:
Recombinant purified full length SRF was incubated with active recombinant human caspase 3 (BD PharMingen) in the presence or absence of 20 μM of Z-VAD-fmk (BD PharMingen), a caspase 3 inhibitor, in a reaction buffer (50 mM HEPES (pH 7.4), 100 mM NaCl, 1 mM EDTA, 0.1% CHAPS, 10 mM DTT and 10% glycerol). Reactions were analyzed by Western blot as described above.
To examine caspase 3 cleavage of SRF, we incubated activated caspase 3 with recombinant SRF in vitro. […] Caspase 3 cleaved SRF in a time-dependent manner, and this cleavage was inhibited by the caspase inhibitor, Z-VAD. […] In this case, the 55 kDa fragment tended to fall as a function of caspase 3 doses while there was a coincident increase into a 32 kDa fragment.
(In western blotting, separated proteins are transferred to a membrane and probed.)

The next assay deals with neonatal cardiomyocytes. The assay can be described thus: Immunofluorescence analysis of cellular localization in transfected cardiomyocytes. It is filed as cell-based, rat. The settings on record: transfected cardiac myocytes, anti-HA antibody. From the text: Visualization of transfected SRF and SRF-N cellular localization was implemented in neonatal cardiomyocytes attached to coverslips as described previously (Wei et al., 2001). Anti-HA antibody was used at 1:200.

Assay [2] relates to skeletal α-actin SRE1 DNA probe. The assay can be described thus: Electrophoretic gel mobility shift assay (EMSA). In kind it is binding. To be noted: recombinant protein. Here is the method: DNA binding activity of SRF-N was assayed by EMSA with recombinant SRF-N and full length SRF and with the oligonucleotide probe corresponding to the proximal SRE1 of the skeletal a-actin promoter as previously described (MacLellan et al., 1994; Wei et al., 1998). Recombinant SRF and SRF-N were generated using pET-15b (Novagen) vector, which contains 6′histidine tag. These recombinant SRFs were expressed in BL21 (Stratagene) competent cells followed by Ni-NTA (nickel-nitrilotriacetic acid) resin purification.
Background: Mobility shift assays separate free from complexed probe on a gel.

Another assay has as its system cardiac α-actin promoter. The assay can be described thus: Cardiac α-actin promoter luciferase reporter (αCA-luc) co-transfection. In kind it is cell-based, rat. The settings on record: for effect on cardiac α-actin promoter activity (in words): neonatal rat cardiomyocytes. From the text: (§1) The construction and use of reporter plasmids containing the skeletal (SK-luc) and cardiac α-actin (aCA-luc) promoters linked to luciferase reporters were as previously described (MacLellan et al., 1994; Wei et al., 1998). The vector pCGN, a cytomegalovirus promoter-driven expression vector, was used to express full length SRF (residues 1-508) (pCGN-SRF), N-terminal SRF (residues 1-254) (pCGN-SRF-N), C-terminal SRF (residues 255-508) (pCGN-SRF-C) and SRFpm1 (pCGN-SRFpm1) containing triple point mutants within the MADS box (Prywes and Zhu, 1992).
(§2) C2C12 myoblasts and neonatal rat cardiomyocytes were cultured as previously described (MacLellan et al., 1994; Wei et al., 1998). Cells plated in 30-mm plates were transfected with […] of total plasmid DNA containing the reporter plasmid (SK-luc or aCA-luc) and the indicated expression plasmids. Transfections were performed using LipofectAMINE (Invitrogen) according to the manufacturer's instructions. Cells were harvested 40 h post-transfection and luciferase activity was measured as previously described (MacLellan et al., 1994).
(§3) To evaluate potential functional significance of the cleaved fragments, we overexpressed the SRF-N and SRF-C fragments via CMV promoter-driven expression plasmids co-transfected with cardiac α-actin and skeletal α-actin promoter reporter plasmids in cultured rat neonatal cardiomyocytes and C2C12 myoblasts. […] This inhibitory effect was very similar to that observed by a SRF negative mutant SRFpml (Wei et al., 1998; Prywes and Zhu, 1992; Johansen and Prywes, 1993).
For orientation: A reporter such as luciferase makes a cellular process visible.

The subject of assay [3] is skeletal α-actin promoter. The assay can be described thus: Skeletal α-actin promoter luciferase reporter (SK-luc) co-transfection in C2C12 myoblasts. It is filed as cell-based.
Source text: as §1, §2, §3

Entries after “also recorded” stand apart in the source; their conditions may differ. Where a SMILES comes first, the peptide text is derived from it. The star is where a group is joined. Cbz = O=C(OCc1ccccc1)*; CH2F = FC*

Turning to `COC(=O)C[C@H](NC(=O)[C@H](C)NC(=O)[C@@H](NC(=O)OCc1ccccc1)C(C)C)C(=O)CF` [Z-VAD, Z-VAD-fmk] (Cbz-Val-Ala-Asp(OMe)-CH2F), the “cleavage of SRF by caspase 3” value in assay [1] is on record as “blocked; also recorded: inhibited”.

B1: SRF-N: N-terminal SRF (residues 1-254), 32 kDa caspase 3 cleavage fragment (protein)
chain: MLPTQAGAAAALGRGSALGGSLNRTPTGRPGGGGGTRGANGGRVPGNGAGLGPGRLEREAAAAAATTPAPTAGALYSGSEGDSESGEEEELGAERRGLKRSLSEMEIGMVVGGPEASAAATGGYGPVSGAVSGAKPGKKTRGRVKIKMEFIDNKLRRYTTFSKRKTGIMKKAYELSTLTGTQVLLLVASETGHVYTFATRKLQPMITSETGKALIQTCLNSPDSPPRSDPTTDQRMSATGFEETDLTYQVSESD
With B1, in the assay with neonatal cardiomyocytes, the nuclear localization result is reported as “localize to myogenic nuclei”. The “binding to skeletal α-actin SRE1 DNA probe” value in assay [2] is given as “retains DNA binding activity; also recorded: bound”. The “decrease of basal transcriptional activity of the cardiac α-actin promoter” value in the assay with cardiac α-actin promoter (cultured rat neonatal cardiomyocytes, CMV promoter-driven expression plasmid, 40 h post-transfection) is on record as 60%. The “effect on cardiac α-actin promoter activity (in words)” value in the assay with cardiac α-actin promoter is “repressed”. Besides, the “inhibition of the transcriptional activity of α-actin gene promoters” value in the assay with cardiac α-actin promoter (summary for myogenic cells (cardiomyocytes and C2C12 myoblasts together)) is on record as 50-60%. Besides, in assay [3], the “effect on skeletal α-actin promoter activity (in words)” value is given as “repressed”. The “decrease of basal transcriptional activity of the skeletal α-actin promoter” value in assay [3] (CMV promoter-driven expression plasmid, 40 h post-transfection) is given as 50%.

B2: SRF-C: C-terminal SRF (residues 255-508), 32 kDa fragment (protein)
chain: SSGETKDTLKPAFTVTNLPGTTSTIQTAPSTSTTMQVSSGPSFPITNYLAPVSASVSPSAVSSANGTVLKSTGSGPVSSGGLMQLPTSFTLMPGGAVAQQVPVQAIQVHQAPQQASPSRDSSTDLTQTSSSGTVTLPATIMTSSVPTTVGGHMMYPSPHAVMYAPTSGLGDGSLTVLNAFSQAPSTMQVSHSQVQEPGGVPQVFLTASSGTVQIPVSAVQLHQMAVIGQQAGSSSNLTELQVVNLDTAHSTKSE
For B2, the “effect on cardiac α-actin promoter activity (in words)” value in the assay on cardiac α-actin promoter is on record as “did not inhibit”. For the same molecule, the “effect on skeletal α-actin promoter activity (in words)” value in assay [3] was “did not inhibit”.
